From patent US20080014172A1

Molecular target: TNFα (R&D Systems cat# 210-TA) (UniProt P01375)
Assay: cell-based or functional assay

Sequence of UniProt P01375 (P01375 77-233 limits assumed): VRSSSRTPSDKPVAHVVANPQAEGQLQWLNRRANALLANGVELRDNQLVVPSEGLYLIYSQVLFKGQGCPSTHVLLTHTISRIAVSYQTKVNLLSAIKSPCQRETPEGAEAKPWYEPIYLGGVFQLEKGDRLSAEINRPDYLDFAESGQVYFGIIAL

IC50 on TNFα-induced binding of Fibronectin-coated beads to BEND cells: 0.769 µg/mL
Substance: TNFα binding protein (TBP)
